Experimental findings from patent US20120156246A1 are described below.

The target in the test is histidine tagged PSMGFR peptide (MUC1* extra cellular domain). Nature of the test: SPR, histidine-tagged PSMGFR on 3.8% or 5.7% NTA SAM chip.
histidine tagged PSMGFR peptide (MUC1* extra cellular domain), sequence (peptide, as listed by the source): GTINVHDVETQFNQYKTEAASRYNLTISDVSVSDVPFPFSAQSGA

Turning to “NM23-S120G (100% hexamer preparation) (from UniProt P15531 1-152) (ligand)”, the SPR binding response (RUs) was 70 RU.
